Results on four molecules are retold here after patent US11459586B2, “Methods for increasing efficiency of nuclease-mediated gene editing in stem cells” (President and Fellows of Harvard College, priority 2016, dated 2022).

The subject of assay [1] is human iPSC. The assay is described as follows: mThy1 gene targeting in hiPSC co-transfected with DNA repair or viral inhibitor genes. It counts as cell-based. The protocol: FIGS. 9A-G. Effects of chemical and genetic inhibitors on mThy1 gene targeting in hiPSC. FIG. 9A. Mouse Thy1 gene targeting scheme. Human iPSC were nucleofected with the mThy1 targeting vector system plasmids and analyzed by flow cytometry five days later. The percentages of mThy1^+hThy1^−, mThy1^+hThy1^+, and mThy1^−hThy1^− cells for each sample (gated on live single cells) are graphed. Lines mark the percentage values for the control sample. FIGS. 9B-9D. Human iPSC were nucleofected with: 2 μg mThy1 targeting vector; 0.5 μg Cas9 plasmid; and 1.5 μg of sgRNA plasmids. The sample was divided into multiple wells and cultured in plain media (mTeSR1+10 μM Y-27632 ROCK inhibitor) supplemented with the indicated chemical inhibitor for three days. 20 μM pifithrin α, 200 μM peptide V5 (VPMLK, SEQ ID NO:31), 200 μM peptide control (IPMIK, SEQ ID NO:32), 50 μM TEMPOL, or the indicated concentrations of SCR7 or L755507 were used. FIG. 9B, mThy1^+hThy1^− (bottom portion of each bar in each graph), mThy1^+hThy1^+ (top portion of each bar in each graph). FIG. 9C, mThy1^+hThy1^− (bottom portion of each bar in each graph), mThy1^+hThy1^+ (top portion of each bar in left and center graphs, middle portion of each bar in right graph), and mThy1^−hThy1^− (top portion of each bar in right graph). FIG. 9D, mThy1^+hThy1^− (bottom portion of each bar in each graph), mThy1^+hThy1^+ (center portion of each bar in each graph), and mThy1^−hThy1^− (top portion of each bar in each graph). FIGS. 9E-9F. Human iPSC were nucleofected with: 2 μg mThy1 targeting vector plasmid; 0.5 μg Cas9 plasmid; 1 μg of sgRNA plasmids; and 0.5 μg of plasmid expressing the indicated DNA repair gene or pUC19 control (“Cas9 only”). For FIG. 9E, cultures were treated with 50 μM zVAD and 10 μM SB203580 post transfection. mThy1^+hThy1^− (bottom portion of each bar in each graph), mThy1^+hThy1^+ (top portion of each bar in left and center graphs, middle portion of each bar in right graph), and mThy1^−hThy1^− (top portion of each bar in right graph). FIG. 9F, mThy1^+hThy1^− (bottom portion of each bar in each graph), mThy1^+hThy1^+ (top portion of each bar in left and center graphs, middle portion of each bar in right graph), and mThy1^−hThy1^− (top portion of each bar in right graph). FIG. 9G. Human iPSC were nucleofected with: 2 μg mThy1 targeting vector plasmid; 0.5 μg Cas9 plasmid; and 1.5 μg of sgRNA plasmids. The indicated viral inhibitor genes were cloned into the Cas9 expression vector following an IRES sequence. Cultures were supplemented with 50 μM zVAD post transfection. mThy1^+hThy1^− (bottom portion of each bar in each graph), mThy1^+hThy1^+ (top portion of each bar in left and center graphs, middle portion of each bar in right graph), and mThy1^−hThy1^− (top portion of each bar in right graph). […]

Assay [2] relates to human iPSC. The assay is described as follows: gene disruption of hiPSC surface markers with truncated sgRNAs and Trex2 (flow cytometry). It is filed as cell-based. To be noted: 1 μg Trex2 plasmid with Cas9 and sgRNA plasmids, five days. The source says: FIG. 12. Gene disruption activity of truncated sgRNAs with and without the Trex2 endonuclease. Full length (20 bp of target complementarity) and Truncated (18-19 bp) sgRNAs were designed to target the coding region of four genes expressed on the surface of hiPSC (top) and cloned into expression plasmids under the constitutive U6 promoter. The Cas9 nuclease and Trex2 endonuclease were also cloned into separate expression plasmids under the constitutive EF1α promoter. Human iPSC were nucleofected with 0.5 μg Cas9 plasmid, 1 μg sgRNA plasmid, and 1 μg of either pUC19 control or Trex2 plasmid. Five days later, cells were stained for expression of the surface markers (Thy 1, CD147, HLA-A2, or HLA-BC) and analyzed by flow cytometry gated on live single cells (open histograms). Shaded histograms indicate staining of an untargeted hiPSC control. The percent of cells that have lost expression of the surface markers is shown.
Pluripotency of iPSC cultures was verified by flow cytometry staining using anti-human Tra-1/60 PE (TRA-1-60, BD) and anti-human Oct3/4 eFluor 660 (EM92, eBioscience) with the fixation buffer sold under the trademark BD CYTOFIX™ and permeabilization buffer sold under the trademark PHOSFLOW™ Perm/Wash buffers. […] Viable cell counts were measured with the cell analyzer sold under the trademark MUSE® Count & Viability Assay kit (EMD Millipore). […]
(Flow cytometry measures light scatter and fluorescence of single cells or particles in a stream.)

Setting [3] is: 0.5 μg plasmid overexpressing the DNA repair gene, 50 μM zVAD and 10 μM SB203580 post transfection (FIG. 9E).

B1: CtIP: principal HR mediator, overexpressed from plasmid (protein, UniProt Q99708 1-897, looked up)
DNA endonuclease RBBP8: MNISGSSCGSPNSADTSSDFKDLWTKLKECHDREVQGLQVKVTKLKQERILDAQRLEEFFTKNQQLREQQKVLHETIKVLEDRLRAGLCDRCAVTEEHMRKKQQEFENIRQQNLKLITELMNERNTLQEENKKLSEQLQQKIENDQQHQAAELECEEDVIPDSPITAFSFSGVNRLRRKENPHVRYIEQTHTKLEHSVCANEMRKVSKSSTHPQHNPNENEILVADTYDQSQSPMAKAHGTSSYTPDKSSFNLATVVAETLGLGVQEESETQGPMSPLGDELYHCLEGNHKKQPFEESTRNTEDSLRFSDSTSKTPPQEELPTRVSSPVFGATSSIKSGLDLNTSLSPSLLQPGKKKHLKTLPFSNTCISRLEKTRSKSEDSALFTHHSLGSEVNKIIIQSSNKQILINKNISESLGEQNRTEYGKDSNTDKHLEPLKSLGGRTSKRKKTEEESEHEVSCPQASFDKENAFPFPMDNQFSMNGDCVMDKPLDLSDRFSAIQRQEKSQGSETSKNKFRQVTLYEALKTIPKGFSSSRKASDGNCTLPKDSPGEPCSQECIILQPLNKCSPDNKPSLQIKEENAVFKIPLRPRESLETENVLDDIKSAGSHEPIKIQTRSDHGGCELASVLQLNPCRTGKIKSLQNNQDVSFENIQWSIDPGADLSQYKMDVTVIDTKDGSQSKLGGETVDMDCTLVSETVLLKMKKQEQKGEKSSNEERKMNDSLEDMFDRTTHEEYESCLADSFSQAADEEEELSTATKKLHTHGDKQDKVKQKAFVEPYFKGDERETSLQNFPHIEVVRKKEERRKLLGHTCKECEIYYADMPAEEREKKLASCSRHRFRYIPPNTPENFWEVGFPSTQTCMERGYIKEDLDPCPRPKRRQPYNAIFSPKGKEQKT
With B1, in the assay on human iPSC [1] (setting [3]), the “mThy1 gene targeting efficiency” value is on record as “did not improve mThy1 gene targeting efficiency”.

B2: Rad51: DNA repair gene overexpressed from plasmid (protein, UniProt Q06609 2-339, looked up)
DNA repair protein RAD51 …: AMQMQLEANADTSVEEESFGPQPISRLEQCGINANDVKKLEEAGFHTVEAVAYAPKKELINIKGISEAKADKILAEAAKLVPMGFTTATEFHQRRSEIIQITTGSKELDKLLQGGIETGSITEMFGEFRTGKTQICHTLAVTCQLPIDRGGGEGKAMYIDTEGTFRPERLLAVAERYGLSGSDVLDNVAYARAFNTDHQTQLLYQASAMMVESRYALLIVDSATALYRTDYSGRGELSARQMHLARFLRMLLRLADEFGVAVVITNQVVAQVDGAAMFAADPKKPIGGNIIAHASTTRLYLRKGRGETRICKIYDSPCLPEAEAMFAINADGVGDAKD
For B2, the “mThy1 gene targeting efficiency” value in the assay on human iPSC [1] (setting [3]) is recorded as “reduced gene targeting efficiency”.

B3: MRE11a: principal HR mediator, overexpressed from plasmid (protein, UniProt P49959 2-708, looked up)
Double-strand break repair …: STADALDDENTFKILVATDIHLGFMEKDAVRGNDTFVTLDEILRLAQENEVDFILLGGDLFHENKPSRKTLHTCLELLRKYCMGDRPVQFEILSDQSVNFGFSKFPWVNYQDGNLNISIPVFSIHGNHDDPTGADALCALDILSCAGFVNHFGRSMSVEKIDISPVLLQKGSTKIALYGLGSIPDERLYRMFVNKKVTMLRPKEDENSWFNLFVIHQNRSKHGSTNFIPEQFLDDFIDLVIWGHEHECKIAPTKNEQQLFYISQPGSSVVTSLSPGEAVKKHVGLLRIKGRKMNMHKIPLHTVRQFFMEDIVLANHPDIFNPDNPKVTQAIQSFCLEKIEEMLENAERERLGNSHQPEKPLVRLRVDYSGGFEPFSVLRFSQKFVDRVANPKDIIHFFRHREQKEKTGEEINFGKLITKPSEGTTLRVEDLVKQYFQTAEKNVQLSLLTERGMGEAVQEFVDKEEKDAIEELVKYQLEKTQRFLKERHIDALEDKIDEEVRRFRETRQKNTNEEDDEVREAMTRARALRSQSEESASAFSADDLMSIDLAEQMANDSDDSISAATNKGRGRGRGRRGGRGQNSASRGGSQRGRADTGLETSTRSRNSKTAVSASRNMSIIDAFKSTRQQPSRNVTTKNYSEVIEVDESDVEEDIFPTTSKTDQRWSSTSSSKIMSQSQVSKGVDFESSEDDDDDPFMNTSSLRRNRR
For B3, in the assay with human iPSC [1] (setting [3]), the “mThy1 gene targeting efficiency” value is reported as “did not improve mThy1 gene targeting efficiency”.

B4: Trex2: endonuclease Trex2, expressed from plasmid (protein, UniProt Q9BQ50 1-236, looked up)
Three prime repair …: MSEAPRAETFVFLDLEATGLPSVEPEIAELSLFAVHRSSLENPEHDESGALVLPRVLDKLTLCMCPERPFTAKASEITGLSSEGLARCRKAGFDGAVVRTLQAFLSRQAGPICLVAHNGFDYDFPLLCAELRRLGARLPRDTVCLDTLPALRGLDRAHSHGTRARGRQGYSLGSLFHRYFRAEPSAAHSAEGDVHTLLLIFLHRAAELLAWADEQARGWAHIEPMYLPPDDPSLEA
Consider B4, for which the gene disruption frequencies result with human iPSC [2] is recorded as “increased gene disruption frequencies”. Further, the “mThy1 gene targeting efficiency” value in the assay with human iPSC [1] (Trex2 plasmid added (FIG. 9F)) is given as “reduced mThy1 gene targeting efficiency”.
